In the nanobody polyreactivity screen of Harvey et al. (2022):

Assay: yeast display, Sf9 membrane polyspecificity reagent, FACS + sequencing; frameworks hold sequencing errors
Method in brief: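 Nanobodies from a synthetic yeast display library (Saccharomyces cerevisiae BJ5465), induced 36–48 hours with galactose, were stained 1 hour at 4 °C with 10% biotinylated, detergent-solubilized Sf9 membrane reagent, enriched on streptavidin microbeads, then FACS-sorted. Anti-HA (expression) and streptavidin (reagent binding) fluorescence set low and high (top ~1%) gates. Polyreactivity labels come from the gate of origin. Genes were colony-PCR amplified, MiSeq 2 × 250 sequenced and filtered by CDR length.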

| Sequence | polyreactivity (PSR sort gate) |
| --- | --- |
| QVQLVESGGGLVQAGGSLRLSSPDSGYIFLPYTMGWYRQAHGKERELVASITWRGTNTYYADSVKGRFTISRDNAKNTVYLQMNSLKPEDTAGYYCTKVPTYWDPNYYYWGQGTQVTVSS | high polyreactivity |
| QVQLVESGGGLVQAGGSLRLSCAASGRIFKYYAMGWYRQAPGKERELVAAISRSGGSTYYADSVKGRFSISRDNAKNTVYLQMNSLKPEDTAVYYCAAGYKQATYDRIRTAYGYWGQGTQVTVSS | high polyreactivity |
| QVQLVESGGGLVQAGGSLRLSWAASGRIFYFYAMGWYRQAPGKERELVASISSGGITNYADSVKGRFTISRDNAKNTVYLQMNSLKPEDTAVYYCNAGYASGKYSGGYLYGYWGQGTQVTVSS | low polyreactivity |
| QVQLVESGGGLVEAGGSLRLSCAASGFIFSSYVMGWYRQAPGKERELVAAITSGNSTYYADSVKGRFTISRDNAKTTVYLQMNSLKPEDTAVSYCTADSYHTYYYWYDYWGQGTQVTVSS | low polyreactivity |
| QVQLVESGGGLVQAGGSLRLSCAASGNIFRGYTMGWYRQAPGKERELVAVISFGDGGTYYADSVKGRFTISRDNAKNTVYLQMNSLKPEDTAVYYCATDYQSTSVWGGHFVINPYDYWGQGTQVTVSS | low polyreactivity |
| QVQLVESGGGLVQAGGSLRLSCAASGRIFATNAMGWYRQAPGKERELVATITRSAGRTYYADSVKGRFTISRDNAKYTVYLQMNSLKPEDTAVYYCAASYWDTEPGYREYDYWGQGSQVTVSS | low polyreactivity |
| QVQLVESGGGLVQAGGSLRLSCAASGSTIHDYAMGWYRQAPGKEREFVAAISNSGGSTYYADSLKGRFTISRDNAKNTVYLQMNSLKPEDTAVYYCAADGRWYWDYEYWGQGTQVTVSS | low polyreactivity |
| QVQLVESGGGLVQAGGSLRLSCAASGRIFSGYAMGWYRQAPGKERELVAAISGGGSTNYADSVKGRFTISRDNAKNTVYLQMNSLKPEDTAVYYCATQYGHYPYWLYKYDYWGQGTQVTVSS | low polyreactivity |
| QVQLVESGGGLVQAGGSLRLSCAASGSTFYVNTMGWYRQAPGKERELVAAITDSGVGTYADSVKGRFTISRDNAKNTVYLQMNSLKPEDTAVYYCAADGVTRDYDYWGQGTQVTVSS | low polyreactivity |
| QVQLVESGGGLVQAGGSLRLSCAASGRTFYAYAMGWYRQAPGKERELVAAIRISGTSTYYADSVKGRFTISRDNAKNTVYLQMNSLKPEDTAVYYCARYVKLSGYGFYYWGQGTQVTVSS | high polyreactivity |
| QVQLVESGGGLVQAGGSLRLSCAASGLTFDANAMGWYIQAPGKEREFVAVISWSDGGTYYADSVKGRFTISRDNAKNTVYLQLNSLKPEDTAVYYCNADFYYVYGNTRRYRYFEMEYWGQGTQVTVSS | low polyreactivity |
| QVQLVESGGCLVQAGGSHRLSCAASGFIFYRYAMGWYRQAPGKERELVAAISGSGGRTYYADSVKGRFTISRDNAKNTVYLQMNSLKPEDTAVYYCAADKQAYVTDDYWGQGTQVTVSS | high polyreactivity |
| QVQLVESGGGLAQAGGSLRLSCAASGSTFLYYAMGWYRQAPGKERELVDAIDSGGSTYYADSVKGRFTISRDNAKNTVYLQMNSLKPEDTAVYYCNADFADHWPPNGPGAHDYWGQGTQVTVSS | low polyreactivity |
| QVQLEESGGGLVQAGGSLRLSCAASARTIFGYAMGWYRQAPGKERELVAAINWGGASTYYADSVKGRFTISRDNAKNTVYLQMNSLKPEDTAVYYCAADSVPSRPTYGRYDYWGQGTQVTVSS | low polyreactivity |
| QVQLVESGGGLVQAGGSLRLSCAASGSTFHLYAMGWYRQAPGKEREFVAAIRGRGGNTYADSVKGRFTISRDNAKNTVYLQMHSLKPEDTAVYYCAAPLLRDLRSPYSYNYWGQGTQVTVSS | low polyreactivity |
| QVQLVESGGGLVQAGGRLRLSCPASGGTFYIYVMGWYRQAPGKESELVAAITSGDSTNYADSVKGRFTISRDNAKNTVYLQMNSLKPEDTAVYYCAVGITQDPLMYYPFFFHYDYWGQGTQVTVSS | low polyreactivity |
| QVQLQESGGGLVQAGGSLRLSCAASGTISQEDWMGWYRQAPGKEREFVAAIGLGSNTNYADSLKGRFTMSRDNAKNTVYLQMNSLKPEDTAVYYCAVSVWQYSDHVYRGQGTQVTVSS | low polyreactivity |
| QVQLVESGGGLVQAGGSLRLSCAASGLTFYRYAMGWYRQAPGKEMELVAAIRVSGNTYYADSVKGPFTISRDNAKNTVYLEMNCLKPEDTAVYYCAAKPYYFYGMDYWGQGTQVTVSS | high polyreactivity |
| QVQLVESGGGLVQAGGSLRLSCAASGFTFWRNTMGSYRQARGKEREFVAAIDWSGGSTTYADSVKGRFTISRDNAKNTVYLQMNSLKKEDTAVYYCAAAERRRHYWWGQESDYWGQGTQVTVSS | low polyreactivity |
| QVQLVESGGVLVQAGGSLRLSCAASGSTIPYNTMGWYRQAPRKERELVAAITRTSYADTVKGRFTISRDNAKNTVYLEMISLKREDTAVYYCAADKSFYYYLFGYDYWGQGTQVTVSS | low polyreactivity |
| QVQLVESGGGLVQAGGSLRLSCAASGYISYVNPMGWYRQAPGKERELVAAISGRGGSTYYADSVKGRFTISRDNAKNTVYLQMYSLKPEDTAVYYCAADLYYSYYWGQGTQVTVSS | low polyreactivity |
| QVQLVESGGGLVQAGGSLRLSCAASGFTFIYNAMGWYRQAPGKERELVAAITGGGGSTYYADSVKGRFTISRDNAKYTVYLQMNSLKPEDTAVYYCNVYYPQSGVTYDYWGQGTLVTVSS | low polyreactivity |

| Sequence | polyreactivity (PSR sort gate) |
| --- | --- |
| QVQLVESGGGLVQAGGSLRLSCAASGRTFEGNAMGWDRQAPGKERELVAALTYPGGDTHYADSVKGRCTISRDNPKNTVYLQMTSLKPEDTAGYYCAADWGWPHTDSMDYWGQGTQVTVSS | low polyreactivity |
| QVQLVESGGGLVHAGGSLRLSCAASGFIFNFYAMGWYRQAPGKERELVAAISRTGGSTYYADSVKGRFTISRDNAKNTVYLQMNSLKPEDTAVYYCNAGCGFRSYGYDPWGQGTQVTVSS | high polyreactivity |
| QVQLVESGGGLVQAGGSLRLSCAASGFTFIQYAMGWYRPAPGKERELVAAMTWSGGRTYYADSVKGRFTISRDNAKNTVYLHMNSLKPEDTAVYYCAKPFNIWGQGTKVTVSS | high polyreactivity |
| QVQLVESGGGLVQAGGSLRLSCAASGSTFRYYTMGWYRQAPGKERELVAAITWSGGSTYYADSVKGRFTISRDNAKNTVYLQMNSLKPEDTAVYYCAADRYSYGSNGYPRFEYYYWGQGTQVTVSS | high polyreactivity |
| QVQLVESGGGLVQAGGSLRLSCAASGNIISIYAMGWYRQAPGKEREFVASNDWSVASTYYADSVKGRFTISRDNAKNTVYLQMNSLKPEDTAVYYCAAELFGLKYGYYLSYDYWGQGTQVTVSS | high polyreactivity |
| QVQLVESGGGLVQAGGSLRLICAASGSTLKYYAMGWSRPAPGKERELVARITRSSGSTYYADSVKGRFTISRDNAKNTVYLQMNSMKPEDTAVYYCNKVYKSYYWGGYDWGQGTQVTVSS | high polyreactivity |
| QVQLVESGGGLVQAGGSLRLSCAASGRTFYGYAMGWYRQAPGKERELVASISRDGSTNYADSVKGRFTISRDNAKNTVYLQMNSLKPEDTAVYYCAGDIWYYRYPIYYYSYDYWGQGTQVTVSS | low polyreactivity |
| QVQLVESGGGLVQAGGSLRLSCAASGRTFLGYAMGWSRQAPGKERELVAAISTGGGRTYYADSVKGRFTISRDNAKNTVYLQMNSLKPEDTAVYYCATVPRHGAPTTFNYWGQGTQVTVSS | high polyreactivity |
| QVQLVESGGGLVQAGGSLRLSCAASGYTFLVYTKGWYRQAPGKERELVATISWSGTSTDYADSVKGRFTISRDNAKNTVYLQMNSLKPEDTAVYYCNAKYPRAYLYGYKLFDSWGQGTQVTVSS | high polyreactivity |
| QVHLVESGGGLVQAGGSLRLSCAATGRTFIIYTMAWYRQAPGKESEFVAAITRSGGGTYYADSVKGRFTISRDNAKNTVYLQMNSQKPEDTAVYYCAAVRFYDQAYDYWGQGTQVTVSS | low polyreactivity |
| QVQLVESGGGLVQAGGSLRLSCAASGNIFSSNDMGWYRQAPGKQRELVAANTRSGGSTYYADSVKGRFTISRDNAKNTLYIQMNSHTPEDTAVYDGAGRPYPRNSWGYDDWGQGTQVTVSS | high polyreactivity |
| QVQLVESGGGLVQAGGSLRLSCAASGRTFTTNAMGWYRQAPGKERELVAAISRRGGSTYYADSVKGRFTISRDNAKNTVYLQMNSLKPEDTAVYYCYAHLWIRGYDYWGQGTQVTVSS | high polyreactivity |
| QVQLVESGGGLVQAGGSLRLSCAASGIIFDSYTMGWYRQAPGKERELVAGISGSGGSTDYADSVKGRFTISRDNAKNTFYLQMNSLKPEDTAVYYCAARPTPYRDDADEYWGQGTQVTVSS | low polyreactivity |
| QVQLVESGGGLDQAGVSLRLSCAASGSTFRIYAMGWYRPAPGKERELVAAISRSGGSTYYADSVKGRFTISRDNAKNTVYLQMNSLKPEDTAVYYCAALSVASRWFGRGTGGYWGQGTQVTVSS | high polyreactivity |
| QVQLVESGGGLVQAGGSLRLSCAASGSTFDYYAMGWYRQAPGKERELVAAITSTGSTYYADSVKGRFTISRDNAKNTVYLQMNSLKPEDTAVYYCAADDIYKYYQYYAFPYYRYDYWGQGTQVTVSS | low polyreactivity |
| QVQLVESGGGLVQAGGSLRLSCAASGSTFPGNAMGWYRQAPGKERELVAAITSSGGSTDYADSVKGRFTISRDNAKNTVYLQMNSLKPEDTAVYYCNAKDAEHYERFNYWGQGTQVTVSS | low polyreactivity |
| QVQLVESGGGLVQAGGSLRLSCAASGITFQYYAMGWYRQAPGKERELGAAITSSGVSTYYADSVKGRFTISRDNAKNTVYLQMNSLKPEDTAVYYCNTVVRGWSSSAYVYWGQGTQVTVSS | low polyreactivity |
| QVQLVESGGGLVQAGGSLRLSCAAFGRIFQYYAMGWYRQAPGKERELVAAITRSGGSTYYADSVKGRFTISRDNAKNTVYLQMNSLKPEDTAVYYCAAYSRYTVREGYDYWGQGTQVTVSS | high polyreactivity |
| QVQLVESGGGLVQAGGSLRLSCAASGRTFVTYAMGWYRQAPGKERELVAGISRRGGRTYYADSVKGRFTISRDNAKNTVYLQMNSLKPEDTAVYYCAAYDRITRYDYWGQGTQVTVSS | high polyreactivity |
| QVQLVESGGGLVQAGGSLRLSCAASGYIFGFYAMGWYRQAPGKERELVSRITYSGTSTYYADSVKGRFTISRDNAKNTVYLQMNSLKPEDTAVYYCATDFVRHAGWRRYDYWGQGTQVTVSS | low polyreactivity |
| QVQLVDSVGGLVQAGGSLRLSCAASGRTFSNYAMGWYRQAPGKERQLVAAISGTGDNTYYADSVKGRFTISRDNAKNTVYLQMNSLKPEDTAVYYCKTVYYGWPRRYGYWGQGTQVTVSS | high polyreactivity |
